Data reported in publication doi:10.64898/2025.12.17.694860, “Structural basis for the inhibition of Trypanosoma brucei enolase by a camelid single-domain antibody” (bioRxiv, 2025).

How the values were obtained:
[1] = biological target: T1, Trypanosoma brucei enolase (Trypanosoma brucei (sequence identical …)); assay: ITC; details: both partners purified
T1 construct: Enolase (phosphopyruvate hydratase) of Trypanosoma brucei; printed MM = 48.4 kDa; Homodimer by analytical SEC and in the crystal; also called TbrENO; T. brucei enolase; source: E. coli, purified (IMAC, SEC); not shown: His tag, N-terminal, kept

[2] = biological target: T1, Trypanosoma brucei enolase; assay: SEC; details: both partners purified

B1: sdAbR1-10 (VHH)
VHH: QVQLQESGGGLVQPGGSLRLSCAAPGSIFSIFSGNIMGWYRQAPGKQRDFVASISSGGATNYADSVKGRFTISRDNAKNTVYLQMNNLKPEDTAVYYCNTVGGVHTNSWGQGTQVTVSS
Kd [1]: ~20 nM | stoichiometry N [1]: ~1 sdAbR1-10 per TbrENO monomer | stoichiometry N [2]: 2 sdAbR1-10 per TbrENO dimer
